Test results as given in paper PMC5240623, “Methylation specific targeting of a chromatin remodeling complex from sponges to humans”.

Legend:
HsMBD2 MBD [1] = target: T1, HsMBD2 MBD (Homo sapiens, UniProt Q9UBB5 150-214); experiment: SPR; steady state; Rmax 6.0; SPR: 10 mM HEPES pH 7.4, 50 mM NaCl, 3 mM MgCl2, 0.1 mM EDTA, 1 mM DTT, 0.05% polysorbate 20, temperature not stated; NMR conditions not in material; conditions: protein: recombinant; blunt
HsMBD2 MBD [2] = target: T1, HsMBD2 MBD; experiment: SPR; steady state; Rmax 0.93; SPR: 10 mM HEPES pH 7.4, 50 mM NaCl, 3 mM MgCl2, 0.1 mM EDTA, 1 mM DTT, 0.05% polysorbate 20, temperature not stated; NMR conditions not in material; conditions: protein: recombinant; blunt

T1 sequence (Q9UBB5 150-214): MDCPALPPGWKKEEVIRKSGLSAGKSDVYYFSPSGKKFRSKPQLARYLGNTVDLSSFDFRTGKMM

B1: CpG(x3) 17 bp, 3'-biotin (dsDNA)
DNA 1: GAGGCGCTCGGCGGCAG
DNA 2: CTGCCGCCGAGCGCCTC
Work on B1 yielded a Kd (HsMBD2 MBD [1]) of 81.7 µM.

B2: mCpG 17 bp, 3'-biotin (dsDNA)
DNA 1: GAGGCGCTCGGCGGCAG
DNA 2: CTGCCGCCGAGCGCCTC
modifications: 5-methyl-C at C9 of strand 1 and C8 of strand 2 (central CpG); two other CpGs unmethylated
B2 gave a Kd (HsMBD2 MBD [2]) of 330 nM.
